Data on 68 variants can be found in the RNAGym collection of RNA variant scans (doi:10.1093/nar/gkz1192).

B1: CPEB3 Ribozyme (parent)
chain: UAACAGGGGGCCACAGCAGAAGCGUUCACGUCGCAGCCCCUGUCAGAUUCUGGUGAAUCUGCGAAUUCUGCUGUAUAUCUC

This data set covers variants of B1. The data set can be described thus: self-cleavage, relative activity (ratio to wild type); higher = more cleavage; in vitro, sequencing. The procedure, abridged: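 Relative activity was defined as the cleaved/total read fraction for a variant divided by the same fraction for the unmutated ribozyme. CPEB3 self-cleaving ribozyme libraries were made by rounds of error-prone PCR, barcoded, and transcribed in vitro with T7 RNA polymerase for 5 hours at 37°C, and cleavage ran through transcription plus a 15 min DNase I step before EDTA. Illumina sequencing of template-switched reverse transcripts gave the reads, and DNA sequencing mapped the barcodes. Averages come from three batches, using variants with at least 5 reads.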
In the case of UAACAGGGGGCCACAGCAGAAGCGUUCACGUCCCAGCCCCUGCCAGAUUCUGGUGAAUCUGCGAAUUCUGCUGUAUAUCUC, the self-cleavage turned out to be 0.22.
UAACAGGGGGCCACAGCAGAAGCGUUCACGUCCCAGCCCCUGACAGAUUCUGGUGAAUCUGCGAAUUCUGCUGUAUAUCUC: the self-cleavage is 0.18.
As to UAACAGGGGGCCACAGCAGAAGCGUUCACGUCUCAGCCCCUGUCCGAUUCUGGUGAAUCUGCGAAUUCUGCUGUAUAUCUC, the self-cleavage worked out at 0.12.
The same measure for UAACAGGGGGCCACAGCAGAAGCGUUCACGUCUCAGCCCCUGUCGGAUUCUGGUGAAUCUGCGAAUUCUGCUGUAUAUCUC: 0.13; for UAACAGGGGGCCACAGCAGAAGCGUUCACGUCUCAGCCCCUGUCAGAUUCUGGUGGAUCUGCGAAUUCUGCUGUAUAUCUC: 0.29; for UAACAGGGGGCCACAGCAGAAGCGUUCACGUCUCAGCCCCUGUCAGAUUCUGGUGUAUCUGCGAAUUCUGCUGUAUAUCUC: 0.42.
In the case of UAACAGGGGGCCACAGCAGAAGCGUUCACGUCCCACCCCCUGUCAGAUUCUGGUGAAUCUGCGAAUUCUGCUGUAUAUCUC, the self-cleavage was 0.15.
Consider UAACAGGGGGCCACAGCAGAAGCGUUCACGUCCCAGCCCCUGUCAGAAUCUGGUGAAUCUGCGAAUUCUGCUGUAUAUCUC, for which the self-cleavage came to 0.15.
Next, UAACAGGGGGCCACAGCAGAAGCGUUCACGUCCCAGCCCCUGUCAGACUCUGGUGAAUCUGCGAAUUCUGCUGUAUAUCUC: 0.44; UAACAGGGGGCCACAGCAGAAGCGUUCACGUCGAGGCCCCUGUCAGAUUCUGGUGAAUCUGCGAAUUCUGCUGUAUAUCUC: 1.07.
Next, UAACAGGGGGCCACAGCAGAAGCGUUCACGUCCCAGCCCCUGUCAGAUUCUGGUGAAUCUGCGAAUUCUGCUGUAUAUCCC: 0.27; UAACAGGGGGCCACAGCAGAAGCGUUCACGUCUCAGCCCCUGUCAGAUUCUGGUGAAUCUGCGAAUUCUGCUGUUUAUCUC: 0.81.
For the variant UAACAGGGGGCCACAGCAGAAGCGUUCACGUCUCAGCCCCAGUCAGAUUCUGGUGAAUCUGCGAAUUCUGCUGUAUAUCUC, the self-cleavage was determined as 0.18.
The same measure for UAACAGGGGGCCACAGCAGAAGCGUUCACGUCUCAGCCCCCGUCAGAUUCUGGUGAAUCUGCGAAUUCUGCUGUAUAUCUC: 0.25; for UAACAGGGGGCCACAGCAGAAGCGUUCACGUCUCAGCCCCUGUCAGAUUCUGGUGAACCUGCGAAUUCUGCUGUAUAUCUC: 0.13.
Next, UAACAGGGGGCCACAGCAGAAGCGUUCACGUCUCAGCACCUGUCAGAUUCUGGUGAAUCUGCGAAUUCUGCUGUAUAUCUC: 0.2.
The same measure for UAACAGGGGGCCACAGCAGAAGCGUUCACGUCUCAGCUCCUGUCAGAUUCUGGUGAAUCUGCGAAUUCUGCUGUAUAUCUC: 0.36; for UAACAGGGGGCCACAGCAGAAGCGUUCACGUCUCAGCCCCUGUCAGAUUCUGGUGAAUCUGCGAAUUCUGCUGUAUAUCUC: 0.24.
Turning to UAACAGGGGGCCACAGCAGAAGCGUUCACGUCGAAGCCCCUGUCAGAUUCUGGUGGAUCUGCGAAUUCUGCUGUAUAUCUC, the self-cleavage was found to be 0.22.
Next, UAACAGGGGGCCACAGCAGAAGCGUUCACGUCGAAGCCCCUGUCAGAUUCUGGUGUAUCUGCGAAUUCUGCUGUAUAUCUC: 0.43.
Next, UAACAGGGGGCCACAGCAGAAGCGUUCACGUCCCAGCCCCUGUCAGAUCCUGGUGAAUCUGCGAAUUCUGCUGUAUAUCUC: 0.12.
As for UAACAGGGGGCCACAGCAGAAGCGUUCACGUCUCAGCCCCUGUCAGACUCUGGUGAAUCUGCGAAUUCUGCUGUAUAUCUC, the self-cleavage came to 0.08.
The same measure for UAACAGGGGGCCACAGCAGAAGCGUUCACGUCCCAGCCCCUGUCAGAUUCUGGUGAAUCCGCGAAUUCUGCUGUAUAUCUC: 0.11; for UAACAGGGGGCCACAGCAGAAGCGUUCACGUCCCAGCCCCUGUCAGAUUCUGGUGAAUCAGCGAAUUCUGCUGUAUAUCUC: 0.25; for UAACAGGGGGCCACAGCAGAAGCGUUCACGUCCCAGCCCCUGUCAGAUUCUGGUGAAUCGGCGAAUUCUGCUGUAUAUCUC: 0.12.
Next, UAACAGGGGGCCACAGCAGAAGCGUUCACGUCUCAGCCCCUGUCAGAUUCUGGUGAGUCUGCGAAUUCUGCUGUAUAUCUC: 0.28; UAACAGGGGGCCACAGCAGAAGCGUUCACGUCUCAGCCCCUGUCAGAUUCUGGUGAAUCUGCGAAUUCUGCUGUACAUCUC: 0.32.
Next, UAACAGGGGGCCACAGCAGAAGCGUUCACGUCUCAGCCCCUGUCAGAUUCUGGUGAAUCUGCGAAUUCCGCUGUAUAUCUC: 0.2.
UAACAGGGGGCCACAGCAGAAGCGUUCACGUCUCAGCCCCUGUCAGAUUCUGGUGAAUCUCCGAAUUCUGCUGUAUAUCUC: the self-cleavage came to 0.13.
The same measure for UAACAGGGGGCCACAGCAGAAGCGUUCACGUCCCAGCCCCUGUCAGAUUCUAGUGAAUCUGCGAAUUCUGCUGUAUAUCUC: 0.19.
Next, UAACAGGGGGCCACAGCAGAAGCGUUCACGUCCCAGCCCCUGUCAGAUUCUGGCGAAUCUGCGAAUUCUGCUGUAUAUCUC: 0.13; UAACAGGGGGCCACAGCAGAAGCGUUCACGUCGAAGCCCCUGUCGGAUUCUGGUGAAUCUGCGAAUUCUGCUGUAUAUCUC: 0.37; UAACAGGGGGCCACAGCAGAAGCGUUCACGUCGAAGCCCCUGUCCGAUUCUGGUGAAUCUGCGAAUUCUGCUGUAUAUCUC: 0.19.
In the case of UAACAGGGGGCCACAGCAGAAGCGUUCACGUCUCAGCCCCUGUCAGAUUCCGGUGAAUCUGCGAAUUCUGCUGUAUAUCUC, the self-cleavage is 0.09.
Next, UAACAGGGGGCCACAGCAGAAGCGUUCACGUCUCAGCCCCUGUCAGAUUCGGGUGAAUCUGCGAAUUCUGCUGUAUAUCUC: 0.09; UAACAGGGGGCCACAGCAGAAGCGUUCACGUCUCAGCCCCUGUCAAAUUCUGGUGAAUCUGCGAAUUCUGCUGUAUAUCUC: 0.44.
The same measure for UAACAGGGGGCCACAGCAGAAGCGUUCACGUCUCAGCCCCUGUCAGAUUCUGGUGAAUCAGCGAAUUCUGCUGUAUAUCUC: 0.48; for UAACAGGGGGCCACAGCAGAAGCGUUCACGUCUCAGCCCCUGUCAGAUUCUGGUGAAUCCGCGAAUUCUGCUGUAUAUCUC: 0.11; for UAACAGGGGGCCACAGCAGAAGCGUUCACGUCCCAGCCCCUGUCAGAUUCCGGUGAAUCUGCGAAUUCUGCUGUAUAUCUC: 0.44.
The same measure for UAACAGGGGGCCACAGCAGAAGCGUUCACGUCCCAGCCCCUGUCAGAUUCAGGUGAAUCUGCGAAUUCUGCUGUAUAUCUC: 0.15.
For the variant UAACAGGGGGCCACAGCAGAAGCGUUCACGUCCCAGCCCCUGUCAGAUUCUGGUGAAUCUGCGAAUUCUGCCGUAUAUCUC, the self-cleavage stood at 0.19.
Next, UAACAGGGGGCCACAGCAGAAGCGUUCACGUCCCAGCCCCUGUCAGAUUCUGGUGAAUCUGCGAAUUCUGCAGUAUAUCUC: 0.09.
The same measure for UAACAGGGGGCCACAGCAGAAGCGUUCACGUCCCAGCCCCUGUCAGAUUCUGGUGAAUCUGCGAAUACUGCUGUAUAUCUC: 0.17.
The same measure for UAACAGGGGGCCACAGCAGAAGCGUUCACGUCCCAGCCCCUGUCAGAUUCUGGUGAAUCUGCGAAUCCUGCUGUAUAUCUC: 0.12; for UAACAGGGGGCCACAGCAGAAGCGUUCACGUCCCAGCCCCUGUCAGAUUCUGGUGAAUCUGCGAAUUCUGCUGUACAUCUC: 0.12; for UAACAGGGGGCCACAGCAGAAGCGUUCACGUCUCAGCCCCUGUCAGAUUCUGGUGAAUCUGCGAAUUCUGCUGUAUAUCCC: 0.44.
Take UAACAGGGGGCCACAGCAGAAGCGUUCACGUCUCAGCCCCUGUCAGAUUCUGGUGAAUCUGCGAAUUCUGCUGUAUAUCAC: the self-cleavage was 0.25.
As for UAACAGGGGGCCACAGCAGAAGCGUUCACGUCUCAGCCCCUGUCAGAUUCUGGUGAAUCUGCGAAAUCUGCUGUAUAUCUC, the self-cleavage stood at 0.16.
Next, UAACAGGGGGCCACAGCAGAAGCGUUCACGUCUCAGCCCCUGUCAGAUUCUGGUGAAUCUGCGAACUCUGCUGUAUAUCUC: 0.13; UAACAGGGGGCCACAGCAGAAGCGUUCACGUCUCAGCCCCUGCCAGAUUCUGGUGAAUCUGCGAAUUCUGCUGUAUAUCUC: 0.48.
The same measure for UAACAGGGGGCCACAGCAGAAGCGUUCACGUCUCAUCCCCUGUCAGAUUCUGGUGAAUCUGCGAAUUCUGCUGUAUAUCUC: 0.13; for UAACAGGGGGCCACAGCAGAAGCGUUCACGUCUCAGCCCCUGUCAGAUUCUGGUGAAUCUGCGAAUCCUGCUGUAUAUCUC: 0.16; for UAACAGGGGGCCACAGCAGAAGCGUUCACGUCUCAGCCCCUGUCAGAUUCUGGUGAAUCUGCGGAUUCUGCUGUAUAUCUC: 0.12.
Next, UAACAGGGGGCCACAGCAGAAGCGUUCACGUCUCUGCCCCUGUCAGAUUCUGGUGAAUCUGCGAAUUCUGCUGUAUAUCUC: 0.15.
As for UAACAGGGGGCCACAGCAGAAGCGUUCACGUCGAAGCCCCUGUCAGGUUCUGGUGAAUCUGCGAAUUCUGCUGUAUAUCUC, the self-cleavage is 0.31.
The same measure for UAACAGGGGGCCACAGCAGAAGCGUUCACGUCCCAGCCCCAGUCAGAUUCUGGUGAAUCUGCGAAUUCUGCUGUAUAUCUC: 0.16; for UAACAGGGGGCCACAGCAGAAGCGUUCACGUCCCAGCCCCUGUCAGAUUCUGCUGAAUCUGCGAAUUCUGCUGUAUAUCUC: 0.07.
Next, UAACAGGGGGCCACAGCAGAAGCGUUCACGUCUCAGCCCCUGUCAGAUUCUGGUGAAUCUGCGAAUUCUGCCGUAUAUCUC: 0.19; UAACAGGGGGCCACAGCAGAAGCGUUCACGUCUCAGCCCCUGUCAGAUUCUGGUGAAUCUGCGAAUUCUGCGGUAUAUCUC: 0.28; UAACAGGGGGCCACAGCAGAAGCGUUCACGUCGAAGCCCCUGUCAGAUUCUGGUGAAUCUGCGAAUUCUGCUGUAUAUCUC: 0.34.
The same measure for UAACAGGGGGCCACAGCAGAAGCGUUCACGUCCCAGCCCCUGUCAGAUUCUGGUGAAUCUGCGAAUUCUGCUGUAUAACUC: 0.08.
For UAACAGGGGGCCACAGCAGAAGCGUUCACGUCCCAGCCCCUGUCAGAUUCUGGUGAAUCUGCGAAUUCUGCUGUAUACCUC, the self-cleavage was determined as 0.09.
Next, UAACAGGGGGCCACAGCAGAAGCGUUCACGUCUCAGCCCCUGUCAGAUGCUGGUGAAUCUGCGAAUUCUGCUGUAUAUCUC: 0.2; UAACAGGGGGCCACAGCAGAAGCGUUCACGUCUCAGCCCCUGUCAGAUCCUGGUGAAUCUGCGAAUUCUGCUGUAUAUCUC: 0.15; UAACAGGGGGCCACAGCAGAAGCGUUCACGUCUCAGCCCCUGUCAGAUUCUGGUGAAUCUGCGAGUUCUGCUGUAUAUCUC: 0.43.
The same measure for UAACAGGGGGCCACAGCAGAAGCGUUCACGUCUCAGCCCCUGUCAGAUUCUGGUGAAUCUGCGAUUUCUGCUGUAUAUCUC: 0.13.
In the case of UAACAGGGGGCCACAGCAGAAGCGUUCACGUCCCAGCCCCUGUCAGAUUCUGGUGAAUCUGCGAAUUCCGCUGUAUAUCUC, the self-cleavage amounted to 0.13.
Next, UAACAGGGGGCCACAGCAGAAGCGUUCACGUCCCAGCCCCUGUCAGAUUCUGGUGAAUCUGCGAAUUCAGCUGUAUAUCUC: 0.07.
